Assay in all cases: ITC
In general terms: In ITC the heat of successive injections is recorded.

One assay concerns the target MBP-MCAF1Δ8.
For assay [1], the target named is 3-methyl purine DNA glycosylase (MPG) (UniProt P29372 18-298).
The next assay deals with MBP-HDAC3 (UniProt O15379 1-428).
Sequence of MBP-HDAC3 (O15379 whole entry): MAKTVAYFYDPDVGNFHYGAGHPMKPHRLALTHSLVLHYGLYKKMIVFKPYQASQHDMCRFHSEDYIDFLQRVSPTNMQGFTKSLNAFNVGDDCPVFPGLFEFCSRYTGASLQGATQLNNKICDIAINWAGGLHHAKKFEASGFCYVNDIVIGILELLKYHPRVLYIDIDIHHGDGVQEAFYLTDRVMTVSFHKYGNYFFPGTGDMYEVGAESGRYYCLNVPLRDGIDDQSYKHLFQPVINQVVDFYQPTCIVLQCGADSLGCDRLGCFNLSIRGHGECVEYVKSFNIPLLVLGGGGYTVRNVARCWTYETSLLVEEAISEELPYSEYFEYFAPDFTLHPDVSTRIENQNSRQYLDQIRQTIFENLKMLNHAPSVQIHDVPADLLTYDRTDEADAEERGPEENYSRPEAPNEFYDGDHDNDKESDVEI

Sequence of 3-methyl purine DNA glycosylase (MPG) (P29372 18-298): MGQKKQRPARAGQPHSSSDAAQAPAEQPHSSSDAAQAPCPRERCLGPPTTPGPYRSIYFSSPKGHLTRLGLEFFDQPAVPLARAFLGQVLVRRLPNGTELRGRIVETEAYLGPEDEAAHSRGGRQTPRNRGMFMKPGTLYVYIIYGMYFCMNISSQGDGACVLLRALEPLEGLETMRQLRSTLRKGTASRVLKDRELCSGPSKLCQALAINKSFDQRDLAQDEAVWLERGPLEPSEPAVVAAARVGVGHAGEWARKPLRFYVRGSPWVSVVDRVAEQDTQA

B1: C-terminus of MBD1 (MBD1-c, residues D507-Q605) (domain or fragment, human, UniProt Q9UIS9 507-605, looked up)
chain: DEWTPGTAVLTSPVLVPGCPSKAVDPGLPSVKQEPPDPEEDKEENKDDSASKLAPEEEAGGAGTPVITEIFSLGGTRFRDTAVWLPRSKDLKKPGARKQ
In the case of B1, in the assay with MBP-MCAF1Δ8, the Ka was found to be 160000 M⁻¹; the equilibrium dissociation constant (Kd) (as a rule, the equilibrium constant for the complex coming apart) was 6.4 µM; the dH was -3.92 kcal/mol; the stoichiometry N (in general, the number of molecules, sites or subunits per partner or assembly) is 1.06. In addition, in assay [1], the Ka worked out at 450000 ± 0.09 M⁻¹, binding was characterised by a dissociation constant (Kd) of 2290 ± 490 nM, the dH is -0.87 ± 0.09 kcal/mol and the “stoichiometry N” value was determined as 1.1 ± 0.11. Also, in the assay with MBP-HDAC3, the Ka is 430000 ± 0.07 M⁻¹, the Kd was 2350 ± 370 nM, the dH was -1.75 ± 0.78 kcal/mol and the “stoichiometry N” value came to 0.98 ± 0.06.

These data come from PMC4014985 (Scientific Reports, 2014).
